{"source": "patent US5854388A", "about": "“Angiotensin IV peptides and receptor” (Washington State University Research Foundation, priority 1994, dated 1998)", "key": {"[1]": {"molecular_target": "T1, AT4 receptor (Bos taurus, UniProt F1N1Q8)", "T1 sequence (F1N1Q8 1-1022)": "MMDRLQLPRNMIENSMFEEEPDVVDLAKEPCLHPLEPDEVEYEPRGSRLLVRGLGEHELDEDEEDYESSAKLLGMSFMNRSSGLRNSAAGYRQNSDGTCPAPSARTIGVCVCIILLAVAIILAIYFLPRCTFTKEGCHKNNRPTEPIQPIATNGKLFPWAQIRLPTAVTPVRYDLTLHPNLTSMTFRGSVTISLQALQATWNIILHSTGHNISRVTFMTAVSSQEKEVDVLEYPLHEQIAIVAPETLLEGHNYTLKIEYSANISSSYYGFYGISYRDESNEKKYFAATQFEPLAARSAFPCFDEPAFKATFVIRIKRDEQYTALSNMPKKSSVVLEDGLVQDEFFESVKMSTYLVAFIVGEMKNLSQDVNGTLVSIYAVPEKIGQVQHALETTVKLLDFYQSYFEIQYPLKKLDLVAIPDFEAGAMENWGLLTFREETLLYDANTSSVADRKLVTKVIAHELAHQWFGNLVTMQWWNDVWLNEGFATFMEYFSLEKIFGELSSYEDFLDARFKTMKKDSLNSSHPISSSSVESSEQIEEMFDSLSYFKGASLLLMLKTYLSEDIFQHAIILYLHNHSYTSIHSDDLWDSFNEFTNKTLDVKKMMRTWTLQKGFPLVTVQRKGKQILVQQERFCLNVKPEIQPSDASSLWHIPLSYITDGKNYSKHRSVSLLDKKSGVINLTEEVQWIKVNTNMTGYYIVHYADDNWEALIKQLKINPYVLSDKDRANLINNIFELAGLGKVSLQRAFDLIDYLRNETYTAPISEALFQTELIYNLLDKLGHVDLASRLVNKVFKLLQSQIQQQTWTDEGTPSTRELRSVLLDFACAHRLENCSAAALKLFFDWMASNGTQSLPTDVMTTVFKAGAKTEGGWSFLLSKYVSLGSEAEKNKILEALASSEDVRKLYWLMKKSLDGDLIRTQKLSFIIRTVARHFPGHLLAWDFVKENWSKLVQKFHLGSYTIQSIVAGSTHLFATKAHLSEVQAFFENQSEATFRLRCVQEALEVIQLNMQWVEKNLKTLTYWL", "assay": "125I-AIV binding and competition, bovine adrenal cortical membranes", "details": "read-out: 125I-AIV Binding (Ki); competition"}, "[2]": {"molecular_target": "T2, AT4 receptor (Cavia porcellus, UniProt H0VNM7)", "T2 sequence (H0VNM7 1-1025)": "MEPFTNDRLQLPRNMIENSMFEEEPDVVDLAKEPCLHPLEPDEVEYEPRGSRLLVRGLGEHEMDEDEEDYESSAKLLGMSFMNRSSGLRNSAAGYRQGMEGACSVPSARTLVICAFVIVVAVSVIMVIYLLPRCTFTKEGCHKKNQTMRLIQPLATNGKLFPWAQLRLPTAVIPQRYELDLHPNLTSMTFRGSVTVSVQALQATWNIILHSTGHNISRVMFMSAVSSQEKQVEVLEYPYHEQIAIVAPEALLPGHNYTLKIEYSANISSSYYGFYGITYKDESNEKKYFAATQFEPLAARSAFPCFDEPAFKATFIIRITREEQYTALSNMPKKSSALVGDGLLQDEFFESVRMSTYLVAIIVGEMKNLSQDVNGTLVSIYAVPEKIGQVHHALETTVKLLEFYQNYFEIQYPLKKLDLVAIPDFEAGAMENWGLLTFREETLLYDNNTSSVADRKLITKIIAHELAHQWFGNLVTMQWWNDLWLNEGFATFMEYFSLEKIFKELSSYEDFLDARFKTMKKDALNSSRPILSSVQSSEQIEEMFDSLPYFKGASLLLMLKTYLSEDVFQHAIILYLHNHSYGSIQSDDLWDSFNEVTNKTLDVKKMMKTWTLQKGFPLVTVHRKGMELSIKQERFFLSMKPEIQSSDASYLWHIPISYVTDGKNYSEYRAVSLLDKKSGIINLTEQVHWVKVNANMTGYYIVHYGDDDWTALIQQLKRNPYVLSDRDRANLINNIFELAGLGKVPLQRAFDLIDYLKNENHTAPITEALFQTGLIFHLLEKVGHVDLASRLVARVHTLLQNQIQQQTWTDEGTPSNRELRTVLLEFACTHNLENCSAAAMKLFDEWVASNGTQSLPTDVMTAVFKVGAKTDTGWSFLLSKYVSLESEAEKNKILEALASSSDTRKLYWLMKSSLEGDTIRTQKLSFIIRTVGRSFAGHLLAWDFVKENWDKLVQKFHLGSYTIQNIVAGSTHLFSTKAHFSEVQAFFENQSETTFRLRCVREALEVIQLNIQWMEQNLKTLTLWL", "assay": "125I-AIV binding and competition, guinea pig hippocampus membranes", "details": "competition of 0.6 nM 125I-AIV"}, "[3]": {"assay": "Stability of angiotensin peptides in binding buffer (reverse phase HPLC)", "type": "physicochemical", "details": "4 h at 37° C.", "protocol": "Binding studies were carried out in a buffer (below) containing an extensive cocktail of inhibitors that was designed to minimize metabolism of both the receptor and the test ligand, i.e., the buffer contained 5 mM EDTA, 0.2% BSA, […] Bestatin, 50 μM Plummer's inhibitor, and 100 μM PMSF."}, "[4]": {"tested_on": "rat kidney", "assay": "Renal cortical blood flow (laser doppler) and arterial pressure after infusion into the renal artery", "type": "in vivo", "details": "infusion into renal artery"}, "[5]": {"tested_on": "rats", "assay": "Passive avoidance conditioning after icv injection", "type": "in vivo, rat"}, "[6]": {"details": "in vivo; cited from earlier work"}}}
{"substance": "Asp1 Arg2 Val3 Tyr4 Ile5 His6 Pro7 Phe8 (DRVYIHPF) [AII]", "values": [{"measurement": "Ki", "setting": "[1]", "result": "> 1000", "unit": "nM"}, {"measurement": "Ki", "setting": "[2]", "result": "> 1000", "unit": "nM"}, {"measurement": "hydrolysis in binding buffer", "setting": "[3]", "result": "less than 10%"}, {"measurement": "effect on renal blood flow (in words)", "setting": "[4]", "result": "dramatic decrease in renal blood flow"}, {"measurement": "passive avoidance latency / cognitive effect (in words)", "setting": "[5]", "result": "no specific effect"}, {"measurement": "half-lives", "setting": "[6]", "result": 4.4, "unit": "min"}]}
